For test [1], the target named is human CD16A-Fc^48R/158F fusion protein (human) (UniProt P08637). As to the kind of experiment: surface plasmon resonance. On the technique in general: Surface plasmon resonance follows binding to a sensor surface in real time, without labels.
For test [2] the target is unchanged. As to the kind of experiment: SPR, BIAcore 2000, antigen immobilized.
Test [3] has the same target. As to the kind of experiment: SPR, BIAcore 2000, antigen immobilized, koff/kon.
For test [4] the target is unchanged. As to the kind of experiment: affinity measurement, method not named for the TandAb.
The target of test [5] is human CD16A-Fc^48R/158V fusion protein (human) (UniProt P08637). The description is as above.

The term Kd denotes a measure of binding affinity in units of concentration. Low values mean tighter binding, high ones weaker binding. One may read the koff as the rate constant with which the complex falls apart. A higher koff goes with a short-lived complex. By kon is commonly meant a measure of how fast the partners come together. Higher therefore signals faster complex formation.

human CD16A-Fc^48R/158F fusion protein (human), sequence (P08637 17-208): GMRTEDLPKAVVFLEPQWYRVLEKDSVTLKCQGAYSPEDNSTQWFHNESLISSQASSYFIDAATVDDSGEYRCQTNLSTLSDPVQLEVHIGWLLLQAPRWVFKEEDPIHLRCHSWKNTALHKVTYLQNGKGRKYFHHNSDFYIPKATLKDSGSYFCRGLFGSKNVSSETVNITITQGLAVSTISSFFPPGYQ
human CD16A-Fc^48R/158V fusion protein (human), sequence (P08637 17-208 L66R/F176V limits assumed): as the sequence (P08637 17-208) above, with L50R, F160V counted along it

B1: affinity matured anti-CD16A scFv 4-LS21 (scFv)
scFv: EVQLVQSGAEVKKPGESLKVSCKASGYTFTSYYMHWVRQAPGQGLEWMGIINPSGGSTSYAQKFQGRVTMTRDTSTSTVYMELSSLRSEDTAVYYCARGSAYYYDFADYWGQGTLVTVSSGSASAPTLKLEEGEFSEARVQPVLTQPSSVSVAPGQTATISCGGHNIGSKNVHWYQQRPGQSPVLVIYQDNKRPSGIPERFSGSNSGNTATLTISGTQAMDEADYYCQVWDNYSVLFGGGTKLTVLGQPKAAPSVTLFPPSAAAGSEQKLISEEDLNSHHHHHH
In turn, B1 registered a dissociation constant Kd in test [1] of 50 nM. Moreover, in test [2], the koff was 0.00323 s⁻¹ and the on-rate constant (kon) turned out to be 71300 M⁻¹ s⁻¹. This molecule also had a dissociation constant Kd in test [3] of 45.3 nM.

B2: CD30×CD16^LS21 TandAb/(G2S)3 (bispecific antibody, part only; not given: anti-CD30 VH and VL, His tag, not shown: small tags and cut ends)
chain, part: EEVQLVQSGAEVKKPGESLKVSCKASGYTFTSYYMHWVRQAPGQGLEWMGIINPSGGSTSYAQKFQGRVTMTRDTSTSTVYMELSSLRSEDTAVYYCARGSAYYYDFADYWGQGTLVTVSSGGSGGSGGSGGSGGSGGSGGSGGSGGSQPVLTQPSSVSVAPGQTATISCGGHNIGSKNVHWYQQRPGQSPVLVIYQDNKRPSGIPERFSGSNSGNTATLTISGTQAMDEADYYCQVWDNYSVLFGGGTKLTVL
For B2, the fold improvement in affinity over the 4-LS21 scFv in test [4] and in test [5] was > 10 fold each time.

For the origin of these results see patent US20090214574A1.
